The term EC50 denotes the midpoint of the concentration-response curve.

In the assay the target is T1, recombinant human Trop-2 (Sino Biological, Cat. No: 10428-H08H) (human, UniProt P09758 27-274).
T1 chain: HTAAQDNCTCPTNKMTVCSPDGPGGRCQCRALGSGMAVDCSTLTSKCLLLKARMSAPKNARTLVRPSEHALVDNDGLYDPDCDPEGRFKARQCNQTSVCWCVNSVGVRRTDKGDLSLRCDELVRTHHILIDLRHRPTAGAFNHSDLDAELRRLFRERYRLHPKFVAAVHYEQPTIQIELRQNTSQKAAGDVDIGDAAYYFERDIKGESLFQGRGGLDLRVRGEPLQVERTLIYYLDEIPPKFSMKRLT
The assay can be described thus: ELISA.

B1: Anti-Trop-2 mAb (antibody, V domains shown)
VH: VQLQQSGSELKKPGASVKVSCKASGYTFTNYGMNWVKQAPGQGLKWMGWINTYTGEPTYTDDFKGRFAFSLDTSVSTAYLQISSLKADDTAVYFCARGGFGSSYWYFDVWGQGSLVTVSS
VL: DIQLTQSPSSLSASVGDRVSITCKASQDVSIAVAWYQQKPGKAPKLLIYSASYRYTGVPDRFSGSGSGTDFTLTISSLQPEDFAVYYCQQHYITPLTFGAGTKV
Regarding B1, the EC50 is 0.081 nM.

B2: heterodimeric anti-Trop-2/anti-CD3-scFv bispecific antibody (bispecific antibody)
heavy: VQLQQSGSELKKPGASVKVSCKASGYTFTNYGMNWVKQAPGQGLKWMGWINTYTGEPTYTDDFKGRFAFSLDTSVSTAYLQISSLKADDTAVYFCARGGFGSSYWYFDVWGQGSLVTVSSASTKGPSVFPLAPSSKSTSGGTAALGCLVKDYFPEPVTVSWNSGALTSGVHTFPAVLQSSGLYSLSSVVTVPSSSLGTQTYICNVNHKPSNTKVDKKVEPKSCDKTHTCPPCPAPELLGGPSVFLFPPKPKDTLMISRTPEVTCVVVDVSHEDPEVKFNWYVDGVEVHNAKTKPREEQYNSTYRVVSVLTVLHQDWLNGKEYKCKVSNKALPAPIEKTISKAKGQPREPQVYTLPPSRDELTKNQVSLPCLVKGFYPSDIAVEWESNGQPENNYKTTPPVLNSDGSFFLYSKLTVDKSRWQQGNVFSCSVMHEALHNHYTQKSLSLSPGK
light: DIQLTQSPSSLSASVGDRVSITCKASQDVSIAVAWYQQKPGKAPKLLIYSASYRYTGVPDRFSGSGSGTDFTLTISSLQPEDFAVYYCQQHYITPLTFGAGTKVEIKRTVAAPSVFIFPPSDEQLKSGTASVVCLLNNFYPREAKVQWKVDNALQSGNSQESVTEQDSKDSTYSLSSTLTLSKADYEKHKVYACEVTHQGLSSPVTKSFNRGEC
scFv: not shown
As to B2, the EC50 came out at 0.28 nM.

(Values after patent US20190284299A1 (published 2019).)
